Drawing on patent US20120095193A1 (published 2012), this text covers Kd, koff and kon for 1 molecule.

One may read the koff as the first-order rate constant of dissociation. A lower koff goes with slow dissociation. By kon is commonly meant the second-order rate constant of association. Low values mean slower complex formation, high ones faster complex formation.

Test [1] addresses T1, human ADAMTS5 (human, UniProt Q9UNA0 262-622, limits assumed).
T1 construct: Octet and ELISA used 'recombinant human ADAMTS5'; also called recombinant human ADAMTS5; ADAMTS5 (R&D Systems 2198-AD)
T1 sequence: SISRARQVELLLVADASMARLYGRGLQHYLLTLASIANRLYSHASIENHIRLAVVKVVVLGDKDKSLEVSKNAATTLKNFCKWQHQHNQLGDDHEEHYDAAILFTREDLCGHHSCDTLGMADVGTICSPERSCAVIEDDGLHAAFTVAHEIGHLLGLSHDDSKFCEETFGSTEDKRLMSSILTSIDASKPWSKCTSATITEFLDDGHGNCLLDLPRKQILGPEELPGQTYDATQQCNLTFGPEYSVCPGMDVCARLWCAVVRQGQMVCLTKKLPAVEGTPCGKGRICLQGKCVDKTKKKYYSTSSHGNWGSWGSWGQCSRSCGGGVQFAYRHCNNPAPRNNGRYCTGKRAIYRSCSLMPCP
As to the kind of experiment: Biacore, mAb down, no avidity. (In general: SPR reads the build-up and loss of mass on a sensor chip optically.)

Test [2] has as its target T1, human ADAMTS5. Briefly: Octet QK, antigen down, incl avidity.
Test [3] addresses T1, human ADAMTS5. Briefly: Biacore, mAb from culture supernatant captured on anti-human IgG, ADAMTS5 (R&D 2198-AD) at 64 nM, 1:1 fit.
Test [4] has as its target T1, human ADAMTS5. As to the kind of experiment: Biacore, mAb down, no avidity; Biacore, mAb down, no avidity.

B1: BPC1659 (antibody, human IgG1, kappa)
heavy: not shown
light: DIQMTQSPSSLSASVGDRVTITCKASQSVGTTIVWYQQKPGKAPKLLIYSASNRHTGVPSRFSGSGSGTDFTLTISSLQPEDFATYYCQQYTSYPFTFGQGTKLEIKRTVAAPSVFIFPPSDEQLKSGTASVVCLLNNFYPREAKVQWKVDNALQSGNSQESVTEQDSKDSTYSLSSTLTLSKADYEKHKVYACEVTHQGLSSPVTKSFNRGEC
notes: Humanized, human gamma 1 wild type / kappa, with a fully functional Fc; also called 12F4 H4L0; 12F4 H4L0 IgG1 wt
As to B1, the Kd worked out at 0.085 nM with human ADAMTS5 [1], 0.0383 nM with human ADAMTS5 [2] and 0.0848 nM in the test with human ADAMTS5 [3]. Further, the dissociation rate constant (koff) with human ADAMTS5 [3] was 4.15e-05 s⁻¹. The kon with human ADAMTS5 [3] and with human ADAMTS5 [4] was 489000 M⁻¹ s⁻¹ in each case.
